Laboratory results reported in patent US20220105157A1, “Compositions and Methods for Promoting Angiogenesis in the Eye” (The Regents of the University of California, priority 2019, published 2022).

Columns and labels:
[1] = test system: choroid capillaries of NaIO3-treated mice; assay: Sodium iodate (NaIO3) model, choroid capillary recovery; format: in vivo, mouse; settings: NaIO3 20 mg/kg i.v.; intravitreal LIF 50 ng, CT-1 different doses, OSM 10 ng; OCT-A
Experimental: Eight-week-old C57BL/6J mice were anesthetized with ketamine/xylazine cocktail. Sterilized NaIO3 was administered as a single intravenous injection (20 mg/kg body weight) (28) (29). Control mice were injected with PBS. PBS, LIF (50 ng), CT-1 (different doses) or OSM (10 ng) was injected intravitreally in five-mice groups. Five, seven and nine days after injection, choroid capillaries were monitored by OCT-A system. 9 days after injection, mice were killed and eyes were harvested for H&E and immunofluorescent staining. Avascular area in choroid capillaries was analyzed using ImageJ.

[2] = test system: retinal vasculature of mouse eyes; assay: Intravitreal injection of recombinant proteins in mouse eyes, retinal vessel density; format: in vivo; settings: mice, intravitreal
Experimental: Male C57BL/6J mice (6-8 week and P5) were anesthetized with ketamine/Xylazine cocktail. The indicated amounts of recombinant LIF (Sigma, CAT #SRP9001) in 1 μl of PBS and PBS vehicle control were injected intravitreally with a 33-gauge Hamilton syringe. Seven (for adult mice) or 3 (for neonatal mice) days after injection, animals were euthanized, eyes were then enucleated and fixed in 4% paraformaldehyde (PFA) for 15 min. Choroid-sclera complexes and retinas were separated and anti-CD31 immunofluorescence (IF) or lectin labeling was performed to evidence the vasculature by whole mount staining of both retina and choroidal tissues or flat-mounts of retina. For CD31 IF, rat anti-mouse antibody (BD Biosciences, CAT #550274) was diluted 1:100 and incubated overnight at 4° C. After 4-hour incubation with the Alexa Fluor-488-conjugated anti-rat antibody (Life Technologies, CAT #A11006), whole mounts were imaged via the 488 nm channel using Keyence Microscope BZ-X710 (Keyence Corporation, Osaka, Japan) or A1R Confocal STORM super-resolution system (Nikon). For lectin staining, Dylight-488-labeled lectin (Vector Laboratories, CAT #DL-1174) was diluted at 1:200 and images were obtained using A1R Confocal STORM super-resolution system (Nikon). For Quantification of vascular density in choroids and retina was carried out by Image J. Student's t test was used for statistical analysis. […]
Optical coherence tomography angiography (OCTA) imaging of the retina of adult mice was performed 7 days after LIF injection, using a 1300 nm optical coherence tomography (OCT) system developed by Dr. R. K. Wang's group at University of Washington Seattle, in agreement with previously described methodology (66). […] To quantify the retinal vascular density, retinal and choroidal layers in 3D structure OCT scans were separated by the hyper-reflecting retinal pigment epithelium (RPE). […] The vessel density was then determined by calculating the percentages of vessel-covered area in total area of view using the ImageJ software.

[3] = test system: bovine choroidal endothelial (BCE) cells; assay: BCE endothelial cell proliferation assay (alamar blue); format: cell-based; set-up: key to BCE cell growth normalized to the vehicle control group: ns, not statistically significant; settings: for BCE cell growth normalized to the vehicle control group: day 6, n = 3
Experimental: The bovine endothelial proliferation assays were performed essentially as previously described (63, 64). BCE (1×10^3 cells/well) or BRE (5×10^2 cells/well) cells were seeded in 96-well plates in the culture medium (DMEM-low glucose supplemented with 10% BCS, 2 mM glutamine and antibiotics) plus testing materials with a total volume of 200 μl per well. BAE cells were plated in 96-well plates at a density of 2×10^3 cells in the culture medium (DMEM-low glucose supplemented with 1% BCS and antibiotics) plus testing material with a total volume of 200 μl per well. HRME cells were seeded at a density of 1×10^3 cells/well in gelatin-coated 96-well plates in assay medium (DMEM-low glucose supplemented with 20% FBS and antibiotics) plus testing materials to make a total volume 200 μl per well. For assays involving antibodies or small-molecule inhibitors, inhibitors or vehicle controls were first added and then test materials were added one hour later. After 6 days (unless otherwise specified), cells were incubated with alamar blue for 4 h. Fluorescence was measured at 530 nm excitation wavelength and 590 nm emission wavelength. Each experiment was carried out in duplicate/triplicate and repeated at least three times.

Molecule	avascular areas in choroid compared to PBS group [1]	vascular density in the retina [2]	stimulation of BCE cell growth (mitogenic activity) [3]	BCE cell growth normalized to the vehicle control group ([3]; 3 ng/ml)	BCE cell growth normalized to the vehicle control group ([3]; 10 ng/ml)	BCE cell growth normalized to the vehicle control group ([3]; 30 ng/ml)	BCE cell growth normalized to the vehicle control group ([3]; 100 ng/ml)	BCE cell growth normalized to the vehicle control group ([3]; 300 ng/ml)	BCE cell growth normalized to the vehicle control group ([3]; 1000 ng/ml)	increase in retinal density ([2]; 20 ng)	increase in retinal density ([2]; 100 ng) [%]
OSM: oncostatin M, IL-6 family member (protein, UniProt P13725 26-221, looked up) Oncostatin-M: AAIGSCSKEYRVLLGQLQKQTDLMQDTSRLLDPYIRIQGLDVPKLREHCRERPGAFPSEETLRGLGRRGFLQTLNATLGCVLHRLADLEQRLPKAQDLERSGLNIEDLEKLQMARPNILGLRNNIYCMAQLLDNSDTAEPTKAGRGASQPPTPTPASDAFQRKLEGCRFLHGYHRFMHSVGRVFSKWGESPNRSRR	larger than in the PBS group	vascular density decreased	–	–	–	–	–	–	–	–	–
PRDX-1: recombinant human Peroxiredoxin 1 (protein, UniProt Q06830 2-199, looked up) Peroxiredoxin-1: SSGNAKIGHPAPNFKATAVMPDGQFKDISLSDYKGKYVVFFFYPLDFTFVCPTEIIAFSDRAEEFKKLNCQVIGASVDSHFCHLAWVNTPKKQGGLGPMNIPLVSDPKRTIAQDYGVLKADEGISFRGLFIIDDKGILRQITVNDLPVGRSVDETLRLVQAFQFTDKHGEVCPAGWKPGSDTIKPDVQKSKEYFSKQK	–	–	had no effect	ns	ns	ns	ns	ns	ns	–	–
CT-1: cardiotrophin-1, IL-6 family member (protein, UniProt Q16619 1-201, looked up) Cardiotrophin-1: MSRREGSLEDPQTDSSVSLLPHLEAKIRQTHSLAHLLTKYAEQLLQEYVQLQGDPFGLPSFSPPRLPVAGLSAPAPSHAGLPVHERLRLDAAALAALPPLLDAVCRRQAELNPRAPRLLRRLEDAARQARALGAAVEALLAALGAANRGPRAEPPAATASAASATGVFPAKVLGLRVCGLYREWLSRTEGDLGQLLPGGSA	reduced avascular areas	–	–	–	–	–	–	–	–	approximately 30%	~50
